Measurements: article PMC4840364

Molecular target: glycoprotein Ibα (GPIbα) on human platelets, P07359
Test: flow cytometry on cells
Conditions: chain shown with the change, human platelets incubated 20 min, washed once, FITC-conjugated goat anti-mouse IgG, MFI of 10,000 cells, read off a plot

- response ([mAb] about 37 nM (read from x axis), parent: est. 320): 8 a.u.
- response ([mAb] about 110 nM (read from x axis), parent: est. 290): 10 a.u.
B1: wild-type 5G6 Fab fragment (recombinant) H:T102A; H:T103A; H:T104A; H:T105A; L:D93A (protein)
chain 1: QVTLKESGPGILQPSQTLSLTCSFSGFSLSTSNMGVVWIRQPSGKGLEWLLHILWNDGKFYNPALKSRLTISKDTYNNQVFLKIANVDTADTATYYCARLFAAAASGYFDVWGAGTTVTVSS
chain 2: DIQMTQSPASLSASVGETVTITCRASGNIYNYLAWYQQKQGKSPQLLVYNAKTLADGVPSRFSGSGSGTQYSLKINSLQPEDFGSYFCQHFWATPWTFGGGTKLEIK
